Laboratory results from article PMC12633535 (bioRxiv, 2025).
Positions count from the first letter of the chain named. Numbers in names are those of the source.

T1: GST-ICAT (a.a. Met1-Gln81) (UniProt Q9NSA3 1-81)
T1 sequence (looked up): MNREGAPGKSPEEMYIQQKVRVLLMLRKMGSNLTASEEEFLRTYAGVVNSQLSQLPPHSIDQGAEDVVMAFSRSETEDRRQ

T2: full-length β-catenin E462K, untagged (human, UniProt P35222 1-781, E462K)
T2 sequence (looked up): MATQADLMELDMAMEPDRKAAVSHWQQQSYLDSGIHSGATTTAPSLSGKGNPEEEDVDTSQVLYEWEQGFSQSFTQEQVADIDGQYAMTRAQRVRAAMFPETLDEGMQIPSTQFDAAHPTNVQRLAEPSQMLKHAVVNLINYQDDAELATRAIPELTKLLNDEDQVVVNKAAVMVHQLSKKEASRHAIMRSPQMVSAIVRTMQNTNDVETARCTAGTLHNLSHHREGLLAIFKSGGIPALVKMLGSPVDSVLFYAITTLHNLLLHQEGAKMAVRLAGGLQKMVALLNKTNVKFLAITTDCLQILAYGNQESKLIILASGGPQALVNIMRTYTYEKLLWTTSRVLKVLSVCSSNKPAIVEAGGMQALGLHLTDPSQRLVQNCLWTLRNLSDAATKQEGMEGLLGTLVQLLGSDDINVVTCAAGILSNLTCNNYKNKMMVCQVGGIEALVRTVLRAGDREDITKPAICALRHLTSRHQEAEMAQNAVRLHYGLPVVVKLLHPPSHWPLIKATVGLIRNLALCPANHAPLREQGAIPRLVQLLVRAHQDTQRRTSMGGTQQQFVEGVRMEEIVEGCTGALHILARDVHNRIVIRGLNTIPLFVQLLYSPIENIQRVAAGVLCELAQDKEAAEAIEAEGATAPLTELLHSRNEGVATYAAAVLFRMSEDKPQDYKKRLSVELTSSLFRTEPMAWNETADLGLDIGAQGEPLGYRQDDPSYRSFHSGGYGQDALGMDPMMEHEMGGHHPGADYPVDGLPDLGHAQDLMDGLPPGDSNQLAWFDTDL

T3: β-catenin C619Y/E620K (purified, full length, untagged) (human, UniProt P35222 1-781, C619Y | E620K)
T3 sequence (looked up): T2 sequence (looked up) with K462E, C619Y, E620K

B1: full-length β-catenin, untagged, wild type (natural protein, human, UniProt P35222 1-781, looked up)
chain: T2 sequence (looked up) with K462E
B2: β-catenin D624K/E626K/E628K (purified, full length, untagged) (natural protein)
chain: T2 sequence (looked up) with K462E, D624K, E626K, E629K
B3: full-length β-catenin R469H, untagged (natural protein, human, UniProt P35222 1-781, looked up)
chain: T2 sequence (looked up) with K462E, R469H
B4: purified β-catenin E571K (full length, untagged) (natural protein, human, UniProt P35222 1-781, looked up)
chain: T2 sequence (looked up) with K462E, E571K
B5: GST-tagged AXIN1 CBD peptide V475I/L479W (a.a. 435-498) (domain or fragment, human, UniProt O15169-1 435-498, looked up)
chain: CHKLPPAPAWHHFPPRCVDMGCAGLRDAHEENPESILDEHIQRVWRTPGRQSPGPGHRSPDSGH
B6: GST-tagged AXIN1 CBD peptide, wild type (a.a. Cys435-His498) (domain or fragment, human, UniProt O15169-1 435-498, looked up)
chain: B5 chain with I41V, W45L
B7: GST-tagged AXIN1 CBD peptide V475I (a.a. 435-498) (domain or fragment, human, UniProt O15169-1 435-498, looked up)
chain: B5 chain with W45L
B8: full-length β-catenin C466Y/A467T, untagged (natural protein, human, UniProt P35222 1-781, looked up)
chain: T2 sequence (looked up) with K462E, C466Y, A467T
B9: GST-tagged TCF4 fragment (a.a. 1–53) (domain or fragment, UniProt Q9NQB0 1-53, looked up)
chain: MPQLNGGGGDDLGANDELISFKDEGEQEEKSSENSSAERDLADVKSSLVNESE

Experiments:
Assay in all cases: BLI
[1] = target: B5
[2] = target: T1, GST-ICAT (a.a. Met1-Gln81)
[3] = target: B9
[4] = target: B1
[5] = target: B1; remark: listed apart in the source
[6] = target: T2, full-length β-catenin E462K, untagged
[7] = target: T3, β-catenin C619Y/E620K (purified, full …)

Binder | fold reduction of affinity against wild-type β-catenin [3] [fold] | Kd [4] [nM] | also measured
B1 | – | – | fold decrease of koff against the wild-type CBD peptide [1]: ~20 fold; half-life of the complex [1]: ~1 min
B2 | ~10 | – | fold reduction of affinity against wild-type β-catenin [2]: ~10 fold
B3 | > 10 | – | –
B4 | ~7 | – | –
B5 | – | 40 | –
B6 | – | 1000 | –
B7 | – | ~450 | –
B8 | > 10 | – | –
B9 | – | – | binding result [5]: binds; binding result [6]: binds; binding result [7]: binds
